Test results taken from article PMC11182194.

Experiments:
aflibercept (human) = experiment: ELISA; pH 5.5; biologic titrated and captured on coated human VEGF165; 1 ug/mL hFcRn-GST added for 1 h at room temperature (100 mM phosphate, 0.15 M NaCl, 4% skimmed milk, 0.05% Tween 20); detected with HRP-conjugated anti-GST
bevacizumab (human) = experiment: as above
Sequence of bevacizumab (human) (heavy, as listed by the source, chain 1 of 2): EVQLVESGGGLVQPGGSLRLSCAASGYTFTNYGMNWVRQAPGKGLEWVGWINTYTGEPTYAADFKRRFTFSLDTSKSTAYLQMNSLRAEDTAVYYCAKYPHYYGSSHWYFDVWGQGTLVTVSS
Sequence of bevacizumab (human) (light, as listed by the source, chain 2 of 2): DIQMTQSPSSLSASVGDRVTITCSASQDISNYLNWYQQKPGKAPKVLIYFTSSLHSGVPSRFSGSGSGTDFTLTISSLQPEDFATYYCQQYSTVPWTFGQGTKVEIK

Sequence of recombinant hFcRn-GST (P55899 whole entry, looked up, tested part not stated): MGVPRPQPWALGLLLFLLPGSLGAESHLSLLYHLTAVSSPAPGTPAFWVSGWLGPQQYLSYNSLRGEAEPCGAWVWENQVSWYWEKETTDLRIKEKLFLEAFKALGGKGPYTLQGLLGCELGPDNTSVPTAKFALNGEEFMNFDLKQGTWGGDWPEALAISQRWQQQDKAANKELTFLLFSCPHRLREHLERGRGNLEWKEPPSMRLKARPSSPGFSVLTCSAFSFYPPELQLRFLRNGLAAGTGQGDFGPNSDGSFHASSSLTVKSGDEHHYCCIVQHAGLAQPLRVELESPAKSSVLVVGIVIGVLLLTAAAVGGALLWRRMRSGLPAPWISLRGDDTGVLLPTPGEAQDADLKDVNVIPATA

reduction of absorbance at D30 (capped syringe) against D0-n (aflibercept (human)): 37.5%
reduction of absorbance at D30 (capped syringe) against D0-n (bevacizumab (human)): 18.7%
Substance: recombinant hFcRn-GST (from UniProt P55899 24-365) (receptor)
